Data published in paper PMC5303546 (Biochemical Pharmacology, 2017).

Assays:
PTH2R (V241T) = assay: LANCE cAMP screen, mutant PTH2; conditions: 1 μM PTH(1–34), 10,000 cells/well, 30 min
Description: (§1) The full-length cDNA of human PTH1 and PTH2 (gift from GlaxoSmithKline) in pcDNA3 (Invitrogen, Paisley, UK) were used to express wild type receptors as described previously [14]. […] These various pcDNA3 constructs were used to express the wild type human PTH1 and PTH2 receptors, and mutant PTH2 receptors, in Human Embryonic Kidney (HEK)-293 cells.
(§2) The HEK-293 cells were cultured in Dulbecco’s Modified Eagle’s Medium (DMEM, from Sigma, Poole, UK) supplemented with 10% foetal calf serum (Lonza Wokinham Ltd., Wokingham, UK) and containing 2 mM L-glutamine, 100 U/ml penicillin and 100 μg/ml streptomycin (Invitrogen, Paisley, UK). Cells were transfected with pcDNA3 containing the cDNA encoding the receptors, using the SuperFect® Transfection Reagent (Qiagen Ltd., Crawley, UK.) and stable clones were selected with G418 antibiotic (Invitrogen, Paisley, UK) as follows. Cells were seeded into a 25 cm^2 flask containing 10 ml of media and transfected when they reached 50–80% confluence. To do this, 20 μl of SuperFect® was mixed with a DNA solution consisting of 5 μg plasmid DNA in 150 μl DMEM. […]
(§3) The LANCE cAMP kit (PerkinElmer Life and Analytical Sciences) was used alongside the manufacturer’s instructions with some minor adaptations as described. […] The acceptor fluorescence signal was read at 665 nm on a ViewLux instrument (Perkin Elmer).

PTH2R (I244L) = assay: LANCE cAMP screen, mutant PTH2; conditions: 1 μM PTH(1–34), 10,000 cells/well, 30 min
Description: as §1, §2, §3

PTH2R (Y318I) = assay: LANCE cAMP screen, mutant PTH2; conditions: 1 μM PTH(1–34), 10,000 cells/well, 30 min
Description: (§4) These various pcDNA3 constructs were used to express the wild type human PTH1 and PTH2 receptors, and mutant PTH2 receptors, in Human Embryonic Kidney (HEK)-293 cells.
(§5) The HEK-293 cells were cultured in Dulbecco’s Modified Eagle’s Medium (DMEM, from Sigma, Poole, UK) supplemented with 10% foetal calf serum (Lonza Wokinham Ltd., Wokingham, UK) and containing 2 mM L-glutamine, 100 U/ml penicillin and 100 μg/ml streptomycin (Invitrogen, Paisley, UK). Cells were transfected with pcDNA3 containing the cDNA encoding the receptors, using the SuperFect® Transfection Reagent (Qiagen Ltd., Crawley, UK.) and stable clones were selected with G418 antibiotic (Invitrogen, Paisley, UK) as follows. Cells were seeded into a 25 cm^2 flask containing 10 ml of media and transfected when they reached 50–80% confluence. To do this, 20 μl of SuperFect® was mixed with a DNA solution consisting of 5 μg plasmid DNA in 150 μl DMEM. The DNA was incubated with the reagent for 10 min at room temperature after which 1 ml of media was then added and mixed gently. […]
as §3

PTH2R (L399M) = assay: LANCE cAMP screen, mutant PTH2; conditions: 1 μM PTH(1–34), 10,000 cells/well, 30 min
Description: as §4, §5, §3

PTH2R (A297V) = assay: LANCE cAMP screen, mutant PTH2; conditions: 1 μM PTH(1–34), 10,000 cells/well, 30 min
Description: as §4, §5, §3

PTH2R (A295V) = assay: LANCE cAMP screen, mutant PTH2; conditions: 1 μM PTH(1–34), 10,000 cells/well, 30 min
Description: as §1, §2, §3

PTH2R (V296S) = assay: LANCE cAMP screen, mutant PTH2; conditions: 1 μM PTH(1–34), 10,000 cells/well, 30 min
Description: as §4, §5, §3

PTH2R (C397Y) = assay: LANCE cAMP screen, mutant PTH2; conditions: 1 μM PTH(1–34), 10,000 cells/well, 30 min
Description: as §4, §5, §3

PTH1 = assay: LANCE cAMP screen, wild type PTH1; assay type: cell-based, human; conditions: 1 μM PTH(1–34); HEK-293 stable cells, 10,000 cells/well, 30 min stimulation
Description: as §1, §2, §3

PTH2R (A320V) = assay: LANCE cAMP screen, mutant PTH2; conditions: 1 μM PTH(1–34), 10,000 cells/well, 30 min
Description: as §4, §5, §3

PTH2R (T192V) = assay: LANCE cAMP screen, mutant PTH2; conditions: 1 μM PTH(1–34), 10,000 cells/well, 30 min
Description: as §1, §2, §3

PTH2R (C381A) = assay: LANCE cAMP screen, mutant PTH2; conditions: 1 μM PTH(1–34), 10,000 cells/well, 30 min
Description: as §4, §5, §3

PTH2R (V380 M) = assay: LANCE cAMP screen, mutant PTH2; assay type: cell-based, human; conditions: 1 μM PTH(1–34), 10,000 cells/well, 30 min
Description: as §4, §5, §3

PTH2R (A293V) = assay: LANCE cAMP screen, mutant PTH2; conditions: 1 μM PTH(1–34), 10,000 cells/well, 30 min
Description: as §1, §2, §3

PTH2R (V146 M) = assay: LANCE cAMP screen, mutant PTH2; assay type: cell-based, human; conditions: 1 μM PTH(1–34), 10,000 cells/well, 30 min
Description: as §1, §2, §3

PTH2R (M242F) = assay: LANCE cAMP screen, mutant PTH2; conditions: 1 μM PTH(1–34), 10,000 cells/well, 30 min
Description: as §1, §2, §3

PTH2R (G327V) = assay: LANCE cAMP screen, mutant PTH2; conditions: 1 μM PTH(1–34), 10,000 cells/well, 30 min
Description: as §4, §5, §3

PTH2R (L382T) = assay: LANCE cAMP screen, mutant PTH2; conditions: 1 μM PTH(1–34), 10,000 cells/well, 30 min
Description: as §4, §5, §3

[1] = target: PTH2 receptor mutant Tyr-318-Ile (human) (UniProt P49190); assay: radioligand binding; whole-cell competition: HEK-293 cells expressing the receptor in poly-D-lysine coated 24-well plates; 50 pM ^125I-rPTH(1–34); unlabelled ligand 10 μM–10 pM; room temperature, 2 h; Whole Cell Binding Buffer pH 7.7 with 5% horse serum and 0.5% foetal calf serum; IC50 from a single site model with the Hill co-efficient constrained to 1
[2] = target: parathyroid hormone 2 receptor (PTH2), wild type, human (human) (UniProt P49190); assay: as above
[3] = target: PTH2 receptor mutant Tyr-318-Phe (human) (UniProt P49190); assay: as above
[4] = target: PTH2 receptor mutant Tyr-318-Ile (human) (UniProt P49190)
[5] = target: parathyroid hormone 2 receptor (PTH2), wild type, human (human) (UniProt P49190)
[6] = target: PTH2 receptor mutant Tyr-318-Phe (human) (UniProt P49190)
PTH2 = conditions: cited from earlier work
Text: Despite the success of the chimeric and single residue-swap studies of PTH1 and PTH2 described above, [14], [15], [20], which identified PTH/PTHrP binding and selectivity determinants at PTH1 and PTH2, the nature of the TIP39 selection has not been explored to the same degree.

Chain of parathyroid hormone 2 receptor (PTH2), wild type, human (human) (P49190 25-550): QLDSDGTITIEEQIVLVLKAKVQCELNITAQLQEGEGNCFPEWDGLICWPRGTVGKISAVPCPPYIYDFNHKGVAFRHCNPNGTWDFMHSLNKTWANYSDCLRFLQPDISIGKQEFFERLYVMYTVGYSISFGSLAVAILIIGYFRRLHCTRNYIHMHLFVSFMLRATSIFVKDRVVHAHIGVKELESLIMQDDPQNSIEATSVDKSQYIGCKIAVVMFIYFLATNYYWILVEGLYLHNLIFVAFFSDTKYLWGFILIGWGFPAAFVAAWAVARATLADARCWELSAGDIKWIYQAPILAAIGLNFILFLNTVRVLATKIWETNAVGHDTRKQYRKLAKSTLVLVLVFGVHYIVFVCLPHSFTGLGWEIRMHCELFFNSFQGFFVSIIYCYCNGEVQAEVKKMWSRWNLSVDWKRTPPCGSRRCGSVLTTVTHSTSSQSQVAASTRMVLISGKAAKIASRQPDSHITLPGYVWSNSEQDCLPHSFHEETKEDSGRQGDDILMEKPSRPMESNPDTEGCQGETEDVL
Chain of PTH2 receptor mutant Tyr-318-Phe (human) (P49190 25-550 Y318F): as the sequence (P49190 25-550) above, with Y294F counted along it
Chain of PTH2 receptor mutant Tyr-318-Ile (human) (P49190 25-550 Y318I): as the sequence (P49190 25-550) above, with Y294I counted along it

Molecule	IC50 [1]	pIC50 [1]	IC50 [2]	pIC50 [2]	IC50 [3]	pIC50 [3]	cAMP accumulation (LANCE), EC50; 2500 cells/well, 10 min [4]	cAMP accumulation (LANCE), pEC50; 2500 cells/well, 10 min [4]	cAMP accumulation (LANCE), EC50; 2500 cells/well, 10 min [5]	cAMP accumulation (LANCE), pEC50; 2500 cells/well, 10 min [5]	cAMP accumulation (LANCE), EC50; 2500 cells/well, 10 min [6]	cAMP accumulation (LANCE), pEC50; 2500 cells/well, 10 min [6]	also measured
CC[C@H](C)[C@H](NC(=O)[C@H](CCC(=O)O)NC(=O)[C@H](CO)NC(=O)[C@@H](NC(=O)[C@@H](N)CO)C(C)C)C(=O)N[C@@H](CCC(N)=O)C(=O)N[C@@H](CC(C)C)C(=O)N[C@@H](CCSC)C(=O)N[C@@H](Cc1c[nH]cn1)C(=O)N[C@@H](CC(N)=O)C(=O)N[C@@H](CC(C)C)C(=O)NCC(=O)N[C@@H](CCCCN)C(=O)N[C@@H](Cc1c[nH]cn1)C(=O)N[C@@H](CC(C)C)C(=O)N[C@@H](CC(N)=O)C(=O)N[C@@H](CO)C(=O)N[C@@H](CCSC)C(=O)N[C@@H](CCC(=O)O)C(=O)N[C@@H](CCCNC(=N)N)C(=O)N[C@H](C(=O)N[C@@H](CCC(=O)O)C(=O)N[C@@H](Cc1c[nH]c2ccccc12)C(=O)N[C@@H](CC(C)C)C(=O)N[C@@H](CCCNC(=N)N)C(=O)N[C@@H](CCCCN)C(=O)N[C@@H](CCCCN)C(=O)N[C@@H](CC(C)C)C(=O)N[C@@H](CCC(N)=O)C(=O)N[C@@H](CC(=O)O)C(=O)N[C@H](C(=O)N[C@@H](Cc1c[nH]cn1)C(=O)N[C@@H](CC(N)=O)C(=O)N[C@@H](Cc1ccccc1)C(=O)O)C(C)C)C(C)C [PTH(1–34)]	–	–	–	–	–	–	–	–	–	–	–	–	% maximum PTH(1–34) response (PTH2R (V241T)): 100 ± 1%; % maximum PTH(1–34) response (PTH2R (I244L)): 100 ± 3%; % maximum PTH(1–34) response (PTH2R (Y318I)): 99 ± 1%; % maximum PTH(1–34) response (PTH2R (L399M)): 101 ± 1%; % maximum PTH(1–34) response (PTH2R (A297V)): 100 ± 2%; % maximum PTH(1–34) response (PTH2R (A295V)): 99 ± 2%; % maximum PTH(1–34) response (PTH2R (V296S)): 101 ± 2%; % maximum PTH(1–34) response (PTH2R (C397Y)): 100 ± 2%; % maximum PTH(1–34) response (PTH1): 99 ± 2%; % maximum PTH(1–34) response (PTH2R (A320V)): 100 ± 1%; % maximum PTH(1–34) response (PTH2R (T192V)): 102 ± 2%; % maximum PTH(1–34) response (PTH2R (C381A)): 100 ± 2%; % maximum PTH(1–34) response (PTH2R (V380 M)): 102 ± 1%; % maximum PTH(1–34) response (PTH2R (A293V)): 99 ± 2%; % maximum PTH(1–34) response (PTH2R (V146 M)): 102 ± 1%; % maximum PTH(1–34) response (PTH2R (M242F)): 98 ± 2%; % maximum PTH(1–34) response (PTH2R (G327V)): 100 ± 2%; % maximum PTH(1–34) response (PTH2R (L382T)): 102 ± 2%
TIP (4–39) (peptide)	1480 nM	5.83	158 nM	6.8	603 nM	6.22	89.1 nM	7.05	0.29 nM	9.54	13.2 nM	7.88	–
TIP (5–39) (peptide)	7240 nM	5.14	871 nM	6.06	3240 nM	5.49	> 1000 nM	< 6	17 nM	7.77	912 nM	6.04	–
TIP (6–39) (peptide)	8710 nM	5.06	1050 nM	5.98	4270 nM	5.37	–	–	123 nM	6.91	> 1000 nM	< 6	–
TIP (7–39): TIP39 truncated by the first 6 residues, literature peptide (ref 21) (DAAFRERARLLAALERRHWLNSYMHKLLVLDAP; Tuberoinfundibular peptide of 39 residues; UniProt Q96A98 68-100, looked up, fragment)	–	–	–	–	–	–	–	–	–	–	–	–	efficacy at PTH2 (PTH2): no efficacy

Further molecules by falling IC50 [1], results first:

IC50 [1]	pIC50 [1]	IC50 [2]	pIC50 [2]	IC50 [3]	pIC50 [3]	cAMP accumulation (LANCE), EC50; 2500 cells/well, 10 min [4]	cAMP accumulation (LANCE), pEC50; 2500 cells/well, 10 min [4]	cAMP accumulation (LANCE), EC50; 2500 cells/well, 10 min [5]	cAMP accumulation (LANCE), pEC50; 2500 cells/well, 10 min [5]	cAMP accumulation (LANCE), EC50; 2500 cells/well, 10 min [6]	cAMP accumulation (LANCE), pEC50; 2500 cells/well, 10 min [6]	Molecule	also measured
1480 nM	5.83	58.9 nM	7.23	417 nM	6.38	41.7 nM	7.38	0.12 nM	9.92	4.79 nM	8.32	TIP (2–39) (peptide)	–
1260 nM	5.9	105 nM	6.98	479 nM	6.32	50.1 nM	7.3	0.22 nM	9.66	9.55 nM	8.02	TIP (3–39) (peptide)	–
